Source: patent publication US20140243268A1 (GEORGIA REGENTS RESEARCH INSTITUTE, published 2014)

Molecular target: T1, ErbB2 (UniProt P04626 23-1255, limits assumed)
T1 construct: also called Her2; HER2
Assay: not described (data not shown)

binding result: no binding
B1: Erbin1-693βgal, fusion protein containing the N-terminal 693 aa residues of Erbin and β-galactosidase (other, mouse, UniProt Q80TH2 1-693, looked up)
chain: MTTKRSLFVRLVPCRCLRGEEETVTTLDYSHCSLEQVPKEIFTFEKTLEELYLDANQIEELPKQLFNCQSLHKLSLPDNDLTTLPASIANLINLRELDVSKNGIQEFPENIKNCKVLTIVEASVNPISKLPDGFSQLLNLTQLYLNDAFLEFLPANFGRLTKLQILELRENQLKMLPKTMNRLTQLERLDLGSNEFTEVPEVLEQLSGLREFWMDGNRLTFIPGFIGSLRQLTYLDVSKNNIEMVEEGISTCENLQDFLLSSNSLQQLPETIGSLKNVTTLKIDENQLMYLPDSIGGLRSIEELDCSFNEIEALPSSIGQLTNMRTFAADHNYLQQLPPEIGNWKNITVLFLHCNKLETLPEEMGDMQKLKVINLSDNRLKNLPFSFTKLQQLTAMWLSDNQSKPLIPLQKETDTETQKMVLTNYMFPQQPRTEDVMFISDNESFNPALWEEQRKQRAQVAFECDEDKDEREAPPREGNLKRYPTPYPDELKNMVKTVQTIVHRLKDEETNEESGRDLKQHEDQQVVNKDKCVKTSESTTTKSKLDEREKYMNSVQKMSEPEAETNGGNLPVTASMKLSGNLKHIVNHDDVFEESEELSSDEEMKMAEMRPPLIESSINQPKVVALSNNKKDDAKDADSLSDEVTHNSNQNNSNCSSPSRMSDSVSLNTDSSQDTSLCSPVKQTPVDSNSKVR
notes: Expressed in erbin ΔC/ΔC mice; lacks residues 694-1450 of mouse Erbin, including the PDZ domain; not shown: β-galactosidase encoded by the inserted lacZ gene
